Reference: article PMC3369926, “TRAM Is Involved in IL-18 Signaling and Functions as a Sorting Adaptor for MyD88” (PLoS ONE, 2012)
Where a chain is given by its changes, count along the chain named. Names and notes keep the numbering of the source.

B1: TRAM-TIR (amino acid residues 66-235) (domain or fragment, human, UniProt Q86XR7 66-235, looked up)
chain: EEMFEEEAEEEVFLKFVILHAEDDTDEALRVQNLLQDDFGIKPGIIFAEMPCGRQHLQNLDDAVNGSAWTILLLTENFLRDTWCNFQFYTSLMNSVNRQHKYNSVIPMRPLNNPLPRERTPFALQTINALEEESRGFPTQVERIFQESVYKTQQTIWKETRNMVQRQFIA
notes: TRAM (TICAM-2), human, TIR domain, residues 66-235; also called TIR domain of human TRAM; TRAM TIR domain; source: purified; subcloned into a pGEX vector, obtained by a similar procedure as previously described for the MyD88-TIR
B2: GST-IL-18Rα-TIR (amino acid residues 374-541) (domain or fragment, UniProt Q13478 374-541, looked up)
chain: TYDAFVSYLKECRPENGEEHTFAVEILPRVLEKHFGYKLCIFERDVVPGGAVVDEIHSLIEKSRRLIIVLSKSYMSNEVRYELESGLHEALVERKIKIILIEFTPVTDFTFLPQSLKLLKSHRVLKWKADKSLSYNSRFWKNLLYLMPAKTVKPGRDEPEVLPVLSES
notes: IL-18Rα (formerly IL-1Rrp), cytosolic TIR domain, residues 374-541; also called IL-18Rα TIR domain; IL-1Rrp TIR; source: purified as GST fusion protein (pGEX vector), by methods previously described
B3: GST-MyD88-TIR (wild type, amino acid residues 148-296) (domain or fragment, UniProt Q99836 148-296, looked up)
chain: TTLDDPLGHMPERFDAFICYCPSDIQFVQEMIRQLEQTNYRLKLCVSDRDVLPGTCVWSIASELIEKRCRRMVVVVSDDYLQSKECDFQTKFALSLSPGAHQKRLIPIKYKAMKKEFPSILRFITVCDYTNPCTKSWFWTRLAKALSLP
notes: MyD88, TIR domain, amino acid residues 148-296; also called wild-type MyD88-TIR; MyD88 TIR domain; source: purified as GST fusion protein (pGEX vector), by methods previously described
B4: GST-MyD88-TIR R288A (148-296) (domain or fragment, UniProt Q99836 148-296, looked up)
chain: B3 chain with R141A
notes: MyD88, TIR domain, residues 148-296, with R288A; also called Site III mutant R288A; source: purified as GST fusion protein (pGEX vector), by methods previously described
B5: GST-MyD88-TIR R217A (148-296) (domain or fragment, UniProt Q99836 148-296, looked up)
chain: B3 chain with R70A
notes: MyD88, TIR domain, residues 148-296, with R217A; also called Site I mutant R217A; source: purified as GST fusion protein (pGEX vector), by methods previously described
B6: GST-MyD88-TIR R196A (148-296) (domain or fragment, UniProt Q99836 148-296, looked up)
chain: B3 chain with R49A
notes: MyD88, TIR domain, residues 148-296, with R196A; also called Site II mutant R196A; source: purified as GST fusion protein (pGEX vector), by methods previously described

Each binder was assayed against T1, GST-IL-18Rβ-TIR (amino acid residues 407-599) (UniProt O95256 407-599) (assay: pull-down; GST fusion proteins held on Glutathione Sepharose 4B, three hours at 4°C; four washes with 20 mM potassium phosphate (pH 6.0), 100 mM KCl, 0.1 mM EDTA, 10 mM DTT, 0.5% Triton X100; SDS-PAGE with Coomassie staining; in triplicate). Settings: both partners purified.
T1 construct: IL-18Rβ (formerly IL-1AcPL), cytosolic TIR domain, residues 407-599; also called IL-18Rβ TIR domain; IL-1AcPL TIR; source: purified as GST fusion protein (pGEX vector), by methods previously described
T1 sequence (looked up): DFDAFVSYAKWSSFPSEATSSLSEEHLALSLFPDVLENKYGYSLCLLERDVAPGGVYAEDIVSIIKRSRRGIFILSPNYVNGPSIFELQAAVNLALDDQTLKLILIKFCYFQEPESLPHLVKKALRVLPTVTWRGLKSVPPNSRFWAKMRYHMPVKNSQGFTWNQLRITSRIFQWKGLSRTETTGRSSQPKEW

Binding result, binds:
B1

What follows are binders tested against B1 in the same assay as above. Settings: both partners purified.

Binding result, binds:
B2, B3, B4, B5, B6
